Source: doi:10.1101/236612 (bioRxiv, 2017)

Key:
Test in all cases: co-IP
[1] = molecular target: T1, GFP-tagged Prohibitin (PHB) (UniProt P35232 1-272)
T1 sequence: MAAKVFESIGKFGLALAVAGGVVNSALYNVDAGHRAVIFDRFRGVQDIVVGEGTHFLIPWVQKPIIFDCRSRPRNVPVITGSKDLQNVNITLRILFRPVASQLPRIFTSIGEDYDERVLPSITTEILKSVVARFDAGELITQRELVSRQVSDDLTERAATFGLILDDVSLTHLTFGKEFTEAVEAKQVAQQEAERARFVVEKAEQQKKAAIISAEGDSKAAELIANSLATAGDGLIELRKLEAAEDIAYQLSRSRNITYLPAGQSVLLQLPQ

GFP-tagged TOMM20 = molecular target: T2, GFP-tagged TOMM20 (UniProt Q15388 1-145)
T2 sequence: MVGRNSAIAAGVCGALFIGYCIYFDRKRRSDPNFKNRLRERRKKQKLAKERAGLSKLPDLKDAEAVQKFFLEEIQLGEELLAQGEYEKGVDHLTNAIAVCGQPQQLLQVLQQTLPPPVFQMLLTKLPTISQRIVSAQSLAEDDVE

GFP-tagged TOMM70 = molecular target: T3, GFP-tagged TOMM70 (UniProt O94826 1-608)
T3 sequence: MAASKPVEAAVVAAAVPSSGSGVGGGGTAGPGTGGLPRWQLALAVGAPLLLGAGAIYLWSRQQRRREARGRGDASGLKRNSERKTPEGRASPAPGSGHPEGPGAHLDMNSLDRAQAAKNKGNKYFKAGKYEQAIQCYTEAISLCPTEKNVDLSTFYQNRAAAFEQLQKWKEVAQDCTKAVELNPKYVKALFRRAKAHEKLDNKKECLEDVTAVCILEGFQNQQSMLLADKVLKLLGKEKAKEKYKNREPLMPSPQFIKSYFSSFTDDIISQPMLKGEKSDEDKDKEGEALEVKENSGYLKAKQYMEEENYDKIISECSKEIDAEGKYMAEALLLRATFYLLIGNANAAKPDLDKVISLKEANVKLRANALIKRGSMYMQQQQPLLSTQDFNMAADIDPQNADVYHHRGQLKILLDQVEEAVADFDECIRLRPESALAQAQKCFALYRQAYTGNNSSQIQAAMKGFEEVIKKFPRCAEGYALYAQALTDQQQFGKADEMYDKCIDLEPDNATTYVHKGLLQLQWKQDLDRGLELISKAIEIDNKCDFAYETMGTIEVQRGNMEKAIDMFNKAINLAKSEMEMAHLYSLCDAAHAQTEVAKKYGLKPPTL

fold less AURKA in the pulldown than in pulldowns of TPX2 [1]: ≥ 10 fold | fold less AURKA in the pulldown than in pulldowns of TPX2 (GFP-tagged TOMM20): ≥ 10 fold | fold less AURKA in the pulldown than in pulldowns of TPX2 (GFP-tagged TOMM70): ≥ 10 fold
B1: endogenous AURKA (Aurora A kinase) (enzyme)
chain: MDRSKENCISGPVKATAPVGGPKRVLVTQQFPCQNPLPVNSGQAQRVLCPSNSSQRIPLQAQKLVSSHKPVQNQKQKQLQATSVPHPVSRPLNNTQKSKQPLPSAPENNPEEELASKQKNEESKKRQWALEDFEIGRPLGKGKFGNVYLAREKQSKFILALKVLFKAQLEKAGVEHQLRREVEIQSHLRHPNILRLYGYFHDATRVYLILEYAPLGTVYRELQKLSKFDEQRTATYITELANALSYCHSKRVIHRDIKPENLLLGSAGELKIADFGWSVHAPSSRRTTLCGTLDYLPPEMIEGRMHDEKVDLWSLGVLCYEFLVGKPPFEANTYQETYKRISRVEFTFPDFVTEGARDLISRLLKHNPSQRPMLREVLEHPWITANSSKPSNCQNKESASKQS
